From patent US20150211000A1 (GLYCOFI, published 2015)

Target: T1, PCSK9 (Proprotein convertase subtilisin/kexin type 9) antigen, Alexa 647-conjugated (Pan troglodytes (Chimpanzee); Homo …, UniProt A8T644 31-152; Q8NBP7 153-692, Alexa 647-conjugated)
T1 construct: also called fluorophore-conjugated PCSK9 antigen; fluorophore-labeled PCSK-9 antigen
Experiment: flow cytometry / FACS of Fab-displaying Pichia pastoris labeled with Alexa 647-conjugated PCSK9

T1 sequence (A8T644 31-152 limits assumed, chain 1 of 2): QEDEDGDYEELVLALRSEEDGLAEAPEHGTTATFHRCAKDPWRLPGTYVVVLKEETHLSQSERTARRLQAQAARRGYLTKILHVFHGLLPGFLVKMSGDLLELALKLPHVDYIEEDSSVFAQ
T1 sequence (A8T644 other isoform, or with tags, fused parts or gaps limits assumed, chain 2 of 2): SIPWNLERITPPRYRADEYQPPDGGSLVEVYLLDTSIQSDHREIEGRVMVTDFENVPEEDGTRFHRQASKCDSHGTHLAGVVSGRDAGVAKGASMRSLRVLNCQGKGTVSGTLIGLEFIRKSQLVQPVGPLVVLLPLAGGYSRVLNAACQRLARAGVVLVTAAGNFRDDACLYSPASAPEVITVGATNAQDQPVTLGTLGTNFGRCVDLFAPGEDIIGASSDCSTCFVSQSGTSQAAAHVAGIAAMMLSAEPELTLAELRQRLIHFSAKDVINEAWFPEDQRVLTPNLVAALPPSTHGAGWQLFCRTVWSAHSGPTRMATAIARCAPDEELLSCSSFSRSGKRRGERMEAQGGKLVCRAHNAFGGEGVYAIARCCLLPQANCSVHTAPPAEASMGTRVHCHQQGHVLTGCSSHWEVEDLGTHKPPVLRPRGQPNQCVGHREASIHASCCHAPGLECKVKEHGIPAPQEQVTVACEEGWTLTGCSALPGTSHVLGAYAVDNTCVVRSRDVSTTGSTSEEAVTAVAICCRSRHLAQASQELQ

binding result: no binding
B1: anti-CD20 (Genmab) Fab fragment, heavy chain fused to GR1 coiled coil peptide, displayed on Pichia pastoris strain YGLY7761 (Fab, V domains shown)
VH: AVQLVESGGGLVQPGRSLRLSCAASGFTFGDYTMHWVRQAPGKGLEWVSGISWNSGSIGYADSVKGRFTISRDNAKNSLYLQMNSLRAEDTALYYCTKDNQYGSGSTYGLGVWGQGTLVTVSS
VL: EIVLTQSPATLSLSPGERATLSCRASQSVSSYLAWYQQKPGQAPRLLIYDASNRATGIPARFSGSGSGTDFTLTISSLEPEDFAVYYCQQRSNWPLTFGGGTKVEIKR
notes: also called α-CD20; anti-CD20 Fab fragment Genmab; not shown: linker and tags of vector pGLY3958 between CH1 and GR1
